B1: QP14501448 (antibody, V domains shown)
VH: EVQLVESGGGLVQPGGSLRLSCAASGFTFSSFGMHWVRQAPGKGLEWVAYISSGSNSIYYVDTVKGRFTISRDNAKNSLYLQMNSLRDEDTAVYYCARNAYYGNSFDYWGQGTLVTVSS
VL: DIVMTQSPDSLAVSLGERATISCKSSQSLLNSGNQKNYLTWYQQKPGQPPKLLIYWASTRESGVPDRFTGSGSGTVFTLTISSLQAEDVAVYFCQNNYYYPLTFGGGTKVEIKR
B2: QP14501446 (antibody, V domains shown)
VH: B1 VH
VL: B1 VL with S22N, T69S, V76D, F93Y
B3: QP14491448 (antibody, V domains shown)
VH: B1 VH with A49S
VL: B1 VL
B4: QP14651461 (antibody, V domains shown)
VH: EVQLVQSGAEVKKPGASVKVSCKASGYTFTSYIMHWVRQAPGQGLEWIGYINPYNDGTKYNEKFKGRVTLTSDKSTSTVYMELSSLRSEDTAVYYCARLGFTTRNAMDYWGQGTLVTVSS
VL: DIVMTQSPDSLAVSLGERATINCKSSQSLLNSGNQKNYLAWYQQKPGQPPKLLIYGASTRESGVPDRFTGSGSGTDFTLTISSLQAEDVAVYYCQNDHSYPFTFGQGTKLEIK
B5: QP14651462 (antibody, V domains shown)
VH: B4 VH
VL: B4 VL with L84V
B6: QP14511446 (antibody, V domains shown)
VH: B1 VH with D88S
VL: B4 VL with A40T, G56W, T69S, D97N, H98Y, S99Y, F102L, Q106G, L110V
B7: QP14491446 (antibody, V domains shown)
VH: B1 VH with A49S
VL: B4 VL with A40T, G56W, T69S, D97N, H98Y, S99Y, F102L, Q106G, L110V
B8: QP14661460 (antibody, V domains shown)
VH: B4 VH with R38K, R67K, V68A, Y95C
VL: B4 VL with T69S
B9: QP199200 (antibody, V domains shown)
VH: DVQLVESGGGLVQPGGSRKLSCAASGFTFSSFGMHWVRQAPEKGLEWVAYISSGSNSIYYVDTVKGRFTISRDNPKNTLFLQMTSLKSEDTAMYYCARNAYYGNSFDYWGQGTTLTVSS
VL: DIVMTQSPSSLTVTAGEKVTMSCKSSQSLLNSGNQKNYLTWYQQKPGQPPKLLIYWASTRESGVPDRFTGSGSGTVFTLTISSVQAEDLAVYFCQNNYYYPLTFGAGTKLELK
B10: QP14581453 (antibody, V domains shown)
VH: QVQLVQSGAEVKKPGASVKVSCKASGYTFTNYFVHWVKQAPGQGLEWIGYINPYNDDTKYNEKFKGKATLTRDTSTSTVYMELSSLRSEDTAVYYCLSLRFFAYWGQGTLVTVSS
VL: B1 VL with P49A, T69S, V76D, F93Y, N97D, Y99S
B11: QP14561454 (antibody, V domains shown)
VH: B10 VH with K38R, I48M, K67R, A68V, L70M
VL: B1 VL with P49A, T69S, V76D, L84V, N97D, Y99S
B12: QP14581454 (antibody, V domains shown)
VH: B10 VH
VL: B1 VL with P49A, T69S, V76D, L84V, N97D, Y99S
B13: QP14431442 (antibody, V domains shown)
VH: QVQLVQSGAEVKKPGASVKVSCKASGYAFSSYWMNWVRQAPGQGLEWMGQIYPGNGDTTYNGKFKGRVTMTRDTSTSTVYMELSSLRSEDTAVYYCARFVKGNAMDYWGQGTLVTVSS
VL: B4 VL with N22S, A40T, L52M, G56W, T69S, T75I, L84V, D97A, H98Y
B14: QP14581452 (antibody, V domains shown)
VH: B10 VH
VL: B4 VL with A40T, G56W, T69S, H98Y, F102L, Q106G, L110V
B15: QP14571455 (antibody, V domains shown)
VH: B10 VH with K38R, K67R, A68V
VL: DIVMTQSPDSLAVSLGERATISCKSSQSLLNSGNQKNYLTWYQQKPGQAPKLLIYWASTRESGVPDRFIGSGSGTDFTLTISSVQAEDVAVYFCQNDYSYPLTFGGGTKVEIK
B16: QP14561452 (antibody, V domains shown)
VH: B10 VH with K38R, I48M, K67R, A68V, L70M
VL: B15 VL with S22N, A49P, I69S, V84L, F93Y
B17: QP14571454 (antibody, V domains shown)
VH: B10 VH with K38R, K67R, A68V
VL: B15 VL with I69S
B18: QP14441442 (antibody, V domains shown)
VH: B13 VH with M48I, R72A, T74K
VL: B4 VL with N22S, A40T, L52M, G56W, T69S, T75I, L84V, D97A, H98Y
B19: QP14571453 (antibody, V domains shown)
VH: B10 VH with K38R, K67R, A68V
VL: B15 VL with I69S, V84L, F93Y
B20: QP14441440 (antibody, V domains shown)
VH: B13 VH with M48I, R72A, T74K
VL: B4 VL with N22S, A40T, G56W, T69S, D97A, H98Y
B21: QP14431441 (antibody, V domains shown)
VH: B13 VH
VL: B4 VL with N22S, A40T, G56W, T69S, T75I, L84V, D97A, H98Y
B22: QP14441439 (antibody, V domains shown)
VH: B13 VH with M48I, R72A, T74K
VL: B4 VL with A40T, G56W, T69S, D97A, H98Y
B23: QP14561453 (antibody, V domains shown)
VH: B10 VH with K38R, I48M, K67R, A68V, L70M
VL: B15 VL with I69S, V84L, F93Y
B24: QP14571452 (antibody, V domains shown)
VH: B10 VH with K38R, K67R, A68V
VL: B15 VL with S22N, A49P, I69S, V84L, F93Y
B25: QP14451441 (antibody, V domains shown)
VH: B13 VH with M48I, R72A, T74K, Y95F
VL: B4 VL with N22S, A40T, G56W, T69S, T75I, L84V, D97A, H98Y
B26: QP14561455 (antibody, V domains shown)
VH: B10 VH with K38R, I48M, K67R, A68V, L70M
VL: B15 VL
B27: QP201202 (antibody, V domains shown)
VH: EVQLQQSGPELVKPGASVKMSCKASGYTFTNYFVHWVKQKPGQGLEWIGYINPYNDDTKYNEKFKGKATLTSDKSSSTAYMDLSSLTSEDSAVYYCLSLRFFAYWGQGTLVTVSA
VL: B9 VL with P49A, T69I, V76D, S83H, N97D, Y99S, K109N

Positions count from the first letter of the chain named.

The first assay deals with T1, Claudin 18.2 (CLDN18.2), expressed on CHOS-CLDN 18.2 / HEK293-CLDN 18.2 / HCC827-CLDN 18.2 cells (human, UniProt P56856 1-261). The experiment in a line: cell ELISA. A general note: ELISA stands for enzyme-linked immunosorbent assay.
For B1, the EC50 came out at 0.115 µg/mL. Still for that read-out and setting: the value for B2 was 0.109 µg/mL; that for B3 was 0.12 µg/mL; that for B4 was 0.301 µg/mL. B5: the concentration for a half-maximal effect (EC50) was found to be 0.119 µg/mL. B6 had an EC50 of 0.133 µg/mL. The molecule B7 returned a half-maximal effective concentration (EC50) of 0.158 µg/mL. On the same count and under the same terms, the result for B8 reads 0.105 µg/mL.

Take B9: a half-maximal effect (EC50) was put at 0.243 µg/mL.

A further assay addresses T1, Claudin 18.2 (CLDN18.2), expressed on …. The experiment in a line: cell ELISA. The source holds these as a separate data set.
On to B10, for which it took 0.187 µg/mL to reach a half-maximal effect (EC50). On the same count and under the same terms, the value for B11 was 0.213 µg/mL; that for B12 was 0.21 µg/mL; that for B13 was 0.132 µg/mL.

On to B14, for which the concentration for a half-maximal effect (EC50) was 0.279 µg/mL. As for B15, the midpoint of the response, the EC50, lay at 0.265 µg/mL. Same read-out and setting: the result for B16 reads 0.389 µg/mL. B17: the EC50 was found to be 0.357 µg/mL. B18 showed an EC50 of 0.243 µg/mL.

With B19, the EC50 amounted to 0.796 µg/mL. On to B20, for which the midpoint of the response, the EC50, lay at 0.086 µg/mL.

In turn, B21 registered a half-maximal effective concentration (EC50) of 0.159 µg/mL. As for B22, the EC50 was 0.109 µg/mL. For the molecule B23, it took 0.357 µg/mL to reach a half-maximal effect (EC50). In turn, B24 yielded an EC50 of 0.242 µg/mL.

Molecule B25 came in with an EC50 of 0.134 µg/mL. Turning to B26, the 50% effective concentration (EC50) was found to be 0.246 µg/mL. On the same count and under the same terms, the result for B27 reads 0.944 µg/mL.

The EC50 is the concentration at which the effect is half-maximal. A lower EC50 goes with higher potency in that assay.

For the origin of these results see patent US20230183352A1 (published 2023).
